Results on three variants are retold here after IntAct's records for PubMed 20596027.

The chains are these.
B1: Centriolar coiled-coil protein of 110 kDa (Homo sapiens), O43303-2 (parent)
chain: MEEYEKFCEKSLARIQEASLSTESFLPAQSESISLIRFHGVAILSPLLNIEKRKEMQQEKQKALDVEARKQVNRKKALLTRVQEILDNVQVRKAPNASDFDQWEMETVYSNSEVRNLNVPATFPNSFPSHTEHSTAAKLDKIAGILPLDNEDQCKTDGIDLARDSEGFNSPKQCDSSNISHVENEAFPKTSSATPQETLISDGPFSVNEQQDLPLLAEVIPDPYVMSLQNLMKKSKEYIEREQSRRSLRGSINRIVNESHLDKEHDAVEVADCVKEKGQLTGKHCVSVIPDKPSLNKSNVLLQGASTQASSMSMPVLASFSKVDIPIRTGHPTVLESNSDFKVIPTFVTENNVIKSLTGSYAKLPSPEPSMSPKMHRRRSRTSSACHILINNPINACELSPKGKEQAMDLIIQDTDENTNVPEIMPKLPTDLAGVCSSKVYVGKNTSEVKEDVVLGKSNQVCQSSGNHLENKVTHGLVTVEGQLTSDERGAHIMNSTCAAMPKLHEPYASSQCIASPNFGTVSGLKPASMLEKNCSLQTELNKSYDVKNPSPLLMQNQNTRQQMDTPMVSCGNEQFLDNSFEKVKRRLDLDIDGLQKENCPYVITSGITEQERQHLPEKRYPKGSGFVNKNKMLGTSSKESEELLKSKMLAFEEMRKRLEEQHAQQLSLLIAEQEREQERLQKEIEEQEKMLKEKKAMTAEASELDINNAVELEWRKISDSSLLETMLSQADSLHTSNSNSSGFTNSAMQYSFVSANEAPFYLWGSSTSGLTKLSVTRPFGRAKTRWSQVFSLEIQAKFNKITAVAKGFLTRRLMQTDKLKQLRQTVKDTMEFIRSFQSEAPLKRGIVSAQDASLQERVLAQLRAALYGIHDIFFVMDAAERMSILHHDREVRKEKMLRQMDKMKSPRVALSAATQKSLDRKKYMKAAEMGMPNKKFLVKQNPSETRVLQPNQGQNAPVHRLLSRQGSICRKNPKKAAKCCDNLRRQHSLG
partner: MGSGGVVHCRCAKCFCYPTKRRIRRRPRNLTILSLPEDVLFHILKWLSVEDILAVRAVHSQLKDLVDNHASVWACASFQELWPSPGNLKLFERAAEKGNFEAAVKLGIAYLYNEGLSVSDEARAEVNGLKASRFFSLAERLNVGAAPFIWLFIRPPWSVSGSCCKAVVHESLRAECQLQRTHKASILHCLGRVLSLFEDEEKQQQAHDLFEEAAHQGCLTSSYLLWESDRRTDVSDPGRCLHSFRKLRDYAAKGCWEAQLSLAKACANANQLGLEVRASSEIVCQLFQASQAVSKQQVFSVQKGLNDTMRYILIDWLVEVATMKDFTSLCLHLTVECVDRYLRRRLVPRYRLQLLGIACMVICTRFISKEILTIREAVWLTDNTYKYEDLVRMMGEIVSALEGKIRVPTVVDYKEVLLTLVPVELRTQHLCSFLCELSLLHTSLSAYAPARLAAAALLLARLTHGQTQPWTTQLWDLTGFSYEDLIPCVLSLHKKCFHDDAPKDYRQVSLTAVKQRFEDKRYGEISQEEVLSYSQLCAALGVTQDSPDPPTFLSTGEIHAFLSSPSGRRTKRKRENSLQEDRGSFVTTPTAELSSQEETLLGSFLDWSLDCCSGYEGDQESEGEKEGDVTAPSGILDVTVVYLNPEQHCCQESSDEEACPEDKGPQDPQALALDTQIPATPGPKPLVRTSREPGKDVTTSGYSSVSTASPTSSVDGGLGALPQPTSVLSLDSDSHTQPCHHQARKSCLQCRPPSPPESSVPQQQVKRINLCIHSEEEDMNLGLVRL
B2: Cyclin-F (Homo sapiens), P41002 (parent)
chain: B1 partner

The variants in one assay derive from B1. The following applies: with ccnf_human CCNF.
Regarding L588A;L590A, the “effect of a mutation on the interaction” value is listed as “disrupting interaction”.

Variants of B2 are the subject of a further assay. The following applies: with cul1_human CUL1, Q13616.
Chain of cul1_human CUL1, Q13616 (Q13616 whole entry): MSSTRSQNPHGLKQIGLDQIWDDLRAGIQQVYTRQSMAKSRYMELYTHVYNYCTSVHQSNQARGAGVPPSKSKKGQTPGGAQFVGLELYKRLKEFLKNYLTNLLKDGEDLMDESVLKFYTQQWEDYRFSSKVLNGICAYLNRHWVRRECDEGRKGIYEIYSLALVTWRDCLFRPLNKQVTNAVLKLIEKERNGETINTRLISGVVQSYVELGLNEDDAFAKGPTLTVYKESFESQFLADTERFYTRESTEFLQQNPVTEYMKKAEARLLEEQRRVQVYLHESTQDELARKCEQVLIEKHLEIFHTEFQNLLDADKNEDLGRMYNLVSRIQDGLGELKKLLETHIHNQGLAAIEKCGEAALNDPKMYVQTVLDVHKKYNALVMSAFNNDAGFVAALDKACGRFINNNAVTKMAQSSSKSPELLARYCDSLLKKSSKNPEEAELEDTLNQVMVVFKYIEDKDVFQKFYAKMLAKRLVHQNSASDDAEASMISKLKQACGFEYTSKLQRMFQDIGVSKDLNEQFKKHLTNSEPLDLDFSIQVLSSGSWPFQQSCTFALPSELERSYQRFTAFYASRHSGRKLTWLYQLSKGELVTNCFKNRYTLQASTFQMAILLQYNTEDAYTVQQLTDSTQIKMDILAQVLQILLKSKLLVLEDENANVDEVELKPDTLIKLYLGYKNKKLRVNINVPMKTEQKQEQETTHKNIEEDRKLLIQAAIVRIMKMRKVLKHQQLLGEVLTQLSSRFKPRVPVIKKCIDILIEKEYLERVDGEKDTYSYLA
Take L35A;P36A: the “effect of a mutation on the interaction” value is “disrupting interaction”.

In a further assay the parent is B2. The following applies: with cp110_human CCP110, O43303.
In the case of M309A;L313A, the “effect of a mutation on the interaction” value is reported as “disrupting interaction”.
